Our source for the percent reduction of specific anti-LFA-3 reactivity and half-maximal inhibition of sheep erythrocyte-Jurkat T cell rosettes values is publication PMC2189283.

Test [1] has as its target LFA-3 surface glycoprotein on the human B-lymphoblastoid line JY (human (endogenous in JY)) (UniProt P19256). The experiment in a line: flow cytometry on cells. A general note: A flow cytometer gives signals particle by particle.
For test [2], the target named is CD2 ligand on sheep erythrocytes (T11TS, the sheep homologue of LFA-3) (sheep (endogenous in sheep erythrocytes)).

Sequence of UniProt P19256 (P19256 29-250): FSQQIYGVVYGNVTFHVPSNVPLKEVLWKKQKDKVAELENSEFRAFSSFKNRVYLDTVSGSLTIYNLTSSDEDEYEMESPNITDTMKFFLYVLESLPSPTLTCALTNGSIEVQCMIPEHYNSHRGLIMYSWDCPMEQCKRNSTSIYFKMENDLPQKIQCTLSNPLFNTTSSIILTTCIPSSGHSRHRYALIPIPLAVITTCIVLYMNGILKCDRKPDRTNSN

On to “T11ex2, recombinant soluble CD2 (T11) molecule that corresponds to the two extracellular segment exons (domain or fragment)”, for which the percent reduction of specific anti-LFA-3 reactivity at 10 uM T11ex2 in test [1] worked out at 85%. In addition, the half-maximal inhibition of sheep erythrocyte-Jurkat T cell rosettes in test [2] was in the range of 0.63 to 1.25 µM.
